# From patent US20180037631A1 (Bristol-Myers Squibb, published 2018)
# Target: T1, EGFR on the surface of human tumour cells (A431, H292) (human, UniProt P00533 25-1210)
# Assay: cell-based or functional assay
row,Binder,"% inhibition of EGFR phosphorylation at 100 nM binder, cell-based assay [%]"
1,E11 (designed binder) 10Fn3 domain: MGVSDVPRDLEVVAATPTSLLISWTPANKSYQYYRITYGETGGNSPVQEFTVPYDGTTATISGLKPGVDYTITVYAVTDHKPHADGPHTYHEYPISINYRTEIDKPSQ,83.7
2,E9 (designed binder) 10Fn3 domain: MGVSDVPRDLEVVAATPTSLLISWEANPSRYQYYRITYGETGGNSPVQEFTVPHDLNTATISGLKPGVDYTITVYAVTDSYNPATHEYKYHQTPISINYRTEIDKPSQ,77.3
3,E6 (designed binder) 10Fn3 domain: MGVSDVPRDLEVVAATPTSLLISWQVPRPMYQYYRITYGETGGNSPVQEFTVPYDVYTATISGLKPGVDYTITVYAVTDSYNPATHEYKYHQTPISINYRTEIDKPSQ,80
4,E8 (designed binder) 10Fn3 domain: MGVSDVPRDLEVVAATPTSLLISWQVPRPMYQYYRITYGETGGNSPVQEFTVPYDLTTATISGLKPGVDYTITVYAVTDSYNPATHEYKYHQTPISINYRTEIDKPSQ,92.4
5,E7 (designed binder) 10Fn3 domain: MGVSDVPRDLEVVAATPTSLLISWQVPRPMYQYYRITYGETGGNSPVQEFTVPYDVHTATISGLKPGVDYTITVYAVTDSYNPATHEYKYHQTPISINYRTEIDKPSQ,89.4
6,E10 (designed binder) 10Fn3 domain: MGVSDVPRDLEVVAATPTSLLISWYPGSRTYQYYRITYGETGGNSPVQEFTVPGGVRTATISGLKPGVDYTITVYAVTDYYHPATYEHEYHAHPISINYRTEIDKPSQ,84.7

# Target: T1, EGFR on the surface of human tumour …
# Assay: cell-based or functional assay
# Remark: another data set of the same source
row,Binder,"% inhibition of EGFR phosphorylation at 100 nM binder, cell-based assay [%]"
1,E79 (designed binder) 10Fn3 domain: MGVSDVPRDLEVVAATPTSLLISWQDTSSYHQYYRITYGETGGNSPVQEFTVPGGVRTATISGLKPGVDYTITVYAVTDYFNPSTHEYIYRTIPISINYRTEIDKPSQ,99.2
2,E77 (designed binder) 10Fn3 domain: MGVSDVPRDLEVVAATPTSLLISWSSATRPYQYYRITYGETGGNSPVQEFTVPGGVRTATISGLKPGVDYTITVYAVTDFFNPTTHEYYYHTTPISINYRTEIDKPSQ,81.1
3,E78 (designed binder) 10Fn3 domain: MGVSDVPRDLEVVAATPTSLLISWSVERSVYQYYRITYGETGGNSPVQEFTVPGGVRTATISGLKPGVDYTITVYAVTDYYNPSTHEYNYLTTPISINYRTEIDKPSQ,76.9
4,E4 (designed binder) 10Fn3 domain: MGVSDVPRDLEVVAATPTSLLISWHERDGSRQYYRITYGETGGNSPVQEFTVPGGVRTATISGLKPGVDYTITVYAVTDYFNPTTHEYIYQTTPISINYRTEIDKPSQ,94.3
5,E80 (designed binder) 10Fn3 domain: MGVSDVPRDLEVVAATPTSLLISWSSSHRRYQYYRITYGETGGNSPVQEFTVPGSVATATISGLKPGVDYTITVYAVTDYFNPDTHEYLYHATPISINYRTEIDKPSQ,89.6
6,E81 (designed binder) 10Fn3 domain: MGVSDVPRDLEVVAATPTSLLISWDNNSNSYQYYRITYGETGGNSPVQEFTVPYDLRTATISGLKPGVDYTITVYAVTDYKPHTEGEHTYHESPISINYRTEIDKPSQ,75.1
7,E82 (designed binder) 10Fn3 domain: MGVSDVPRDLEVVAATPTSLLISWRVLVDMYQYYRITYGETGGNSPVQEFTVPGGVLTATISGLKPGVDYTITVYAVTDYKPHVDGPHTYYESPISINYRTEIDKPSQ,77.2
8,E76 (designed binder) 10Fn3 domain: MGVSDVPRDLEVVAATPTSLLISWYSQPLTYQYYRITYGETGGNSPVQEFTVPHDVNTATISGLKPGVDYTITVYAVTDFYNPETHEYTYHLTPISINYRTEIDKPSQ,79

# Other lines, results leading:
row,"% inhibition of EGFR phosphorylation at 100 nM binder, cell-based assay [%]",Binder
1,89.3,E85 (designed binder) 10Fn3 domain: MGVSDVPRDLEVVAATPTSLLISWTQGSTHYQYYRITYGETGGNSPVQEFTVPGMVYTATISGLKPGVDYTITVYAVTDYFDRSTHEYKYRTTPISINYRTEIDKPSQ
2,86.5,E84 (designed binder) 10Fn3 domain: MGVSDVPRDLEVVAATPTSLLISWTLHRKNYQYYRITYGETGGNSPVQEFTVPGGVVTATISGLKPGVDYTITVYAVTDYYNPATHEYDYRTTPISINYRTEIDKPSQ
3,90.7,E83 (designed binder) 10Fn3 domain: MGVSDVPRDLEVVAATPTSLLISWMFVGMSYQYYRITYGETGGNSPVQEFTVPYGVHTATISGLKPGVDYTITVYAVTDYFNPATHEYIYHVTPISINYRTEIDKPSQ

# Target: T1, EGFR on the surface of human tumour …
# Assay: cell-based or functional assay
# Remark: another data set of the same source
row,Binder,"% inhibition of EGFR phosphorylation at 100 nM binder, cell-based assay [%]"
1,E100 (designed binder) 10Fn3 domain: MGVSDVPRDLEVVAATPTSLLISWTPANKSYQYYRITYGETGGNSPVQEFTVPHDLVTATISGLKPGVDYTITVYAVTDHKPHADGPHTYHEYPISINYRTEIDKPSQ,83.3
2,E102 (designed binder) 10Fn3 domain: MGVSDVPRDLEVVAATPTSLLISWTPANKSYQYYRITYGETGGNSPVQEFTVPHDLVTATISGLKPGVDYTITVYAVTDHKPHADGPHTYHESPISINYRTEIDKPSQ,80
3,E104 (designed binder) 10Fn3 domain: MGVSDVPRDLEVVAATPTSLLISWDAGAVTYQYYRITYGETGGNSPVQEFTVPHDLVTATISGLKPGVDYTITVYAVTDHKPHADGPHTYHEYPISINYRTEIDKPSQ,89.3
4,E106 (designed binder) 10Fn3 domain: MGVSDVPRDLEVVAATPTSLLISWDAPAVTYQYYRITYGETGGNSPVQEFTVPYDVYTATISGLKPGVDYTITVYAVTDYKPHADGPHTYHEYPISINYRTEIDKPSQ,84
5,E107 (designed binder) 10Fn3 domain: MGVSDVPRDLEVVAATPTSLLISWDSGRGSYQYYRITYGETGGNSPVQEFTVPYDVYTATISGLKPGVDYTITVYAVTDMMHVEYTEHPISINYRTEIDKPSQH,75.8
6,E101 (designed binder) 10Fn3 domain: MGVSDVPRDLEVVAATPTSLLISWDAPAVTYQYYRITYGETGGNSPVQEFTVPHDLVTATISGLKPGVDYTITVYAVTDYKPHADGPHTYHESPISINYRTEIDKPSQ,90.9
7,E109 (designed binder) 10Fn3 domain: MGVSDVPRDLEVVAATPTSLLISWDAPTSRYQYYRITYGETGGNSPVQEFTVPHDLVTATISGLKPGVDYTITVYAVTDYKPHADGPHTYHESPISINYRTEIDKPSQ,90.9
8,E112 (designed binder) 10Fn3 domain: MGVSDVPRDLEVVAATPTSLLISWDAGAVTYQYYRITYGETGGNSPVQEFTVPGGVRTATISGLKPGVDYTITVYAVTDYKPHADGPHTYHEYPISINYRTEIDKPSQ,86.2
9,E108 (designed binder) 10Fn3 domain: MGVSDVPRDLEVVAATPTSLLISWDAPAVTYQYYRITYGETGGNSPVQEFTVPGGVRTATISGLKPGVDYTITVYAVTDYKPHADGPHTYHESPISINYRTEIDKPSQ,80
10,E110 (designed binder) 10Fn3 domain: MGVSDVPRDLEVVAATPTSLLISWDAGAVTYQYYRITYGETGGNSPVQEFTVPGGVRTATISGLKPGVDYTITVYAVTDYKPHADGPHTYHESPISINYRTEIDKPSQ,81.3
11,E105 (designed binder) 10Fn3 domain: MGVSDVPRDLEVVAATPTSLLISWDAPTSRYQYYRITYGETGGNSPVQEFTVPGGLSTATISGLKPGVDYTITVYAVTDYKPHADGPHTYHESPISINYRTEIDKPSQ,87
12,E99 (designed binder) 10Fn3 domain: MGVSDVPRDLEVVAATPTSLLISWDAPTSRYQYYRITYGETGGNSPVQEFTVPGGVRTATISGLKPGVDYTITVYAVTDYKPHADGPHTYHEYPISINYRTEIDKPSQ,84.7
13,E103 (designed binder) 10Fn3 domain: MGVSDVPRDLEVVAATPTSLLISWTPANKSYQYYRITYGETGGNSPVQEFTVPGGVRTATISGLKPGVDYTITVYAVTNMMHVEYSEYPISINYRTEIDKPSQ,76.3
14,E111 (designed binder) 10Fn3 domain: MGVSDVPRDLEVVAATPTSLLISWDAPTSRYQYYRITYGETGGNSPVQEFTVPHDLVTATISGLKPGVDYTITVYAVTNMMHVEYSEYPISINYRTEIDKPSQ,85.5
